Values quoted from earlier work, collected in patent US6726924B2, “Oral liposomal delivery system” (Biozone Laboratories, Inc., priority 1997, dated 2004).

Details: oral; free vs liposomes with ceramides; Regnault et al. 1996

superoxide dismutase
bioavailability: 14%
